# Data published in the supplement of paper PMC12042874.
# ± gives the uncertainty stated by the source.
# Assay: amyloid nucleation score (Sup35N fusion, yeast selection) (log enrichment); library NNK1; higher = more nucleation; inactive = no reads after selection
# How it was run: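 Yeast lacking psi expressed peptides of 20 random codons fused to Sup35N, received 100 μM copper sulfate for 24 hours, and were then grown for 7 days at 30°C on medium lacking adenine and uracil. Illumina sequencing of input and output plasmid inserts provided the reads. Nucleation scores are DiMSum log enrichments of output over input, centred on the mode of non-aggregating sequences. Any sequence with under 100 input reads was excluded.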
row,Substance,amyloid nucleation score
1,TYYTVTEISHVGWTYFGYVR,-0.151 ± 0.64
2,VAAACFFNRCWEHTYVMIVK,3.1 ± 0.17
3,VAEVKRFCELLLK,-0.29 ± 1.7
4,VAGGDHAAHWKLAVKNPPPS,0.1 ± 0.56
5,VAISDDDVLVWMYFS,0.154 ± 0.44
6,VALID,-0.215 ± 1.7
7,VAPQGNPMWSKDLL,1.8 ± 0.18
8,VARSHYMCI,0.132 ± 0.38
9,VASRFVCWCRGQAQWVSQCN,0.434 ± 0.45
10,VAVLGNFL,inactive
11,VCFWSGEGNLGAWDGHELSM,0.693 ± 0.46
12,VCIFCFRGGMVKRPTLDMVY,0.564 ± 0.19
13,VCKWSVMNHFVVITYHYVMA,0.671 ± 0.3
14,VCLSSLIRMCKYSFPDGTGH,6.813 ± 0.051
15,VCMISAQYYLDIMMGRCNVI,0.468 ± 0.36
16,VCMWRFLVGRT,-0.238 ± 0.9
17,VCPVHSNKGLQFLSMRHYSS,0.511 ± 0.87
18,VCRKRCERQLKPL,0.241 ± 0.24
19,VCTYGFGC,inactive
20,VCVLSGRK,-0.416 ± 0.38
21,VCVNSENHNFT,inactive
22,VCVSIGWFCCSGCCLAQRLW,7.2 ± 0.065

row,Substance,amyloid nucleation score
1,VDFLSTNFWSLSVPVAFLGV,-0.31 ± 0.54
2,VDHTSMWCGFLYTSCLGPDF,-0.758 ± 1.2
3,VDLGRSKWCLTMYESYENGR,-0.127 ± 0.3
4,VDPGDVVFLLRPRSEHWGVG,2.12 ± 0.18
5,VDSDLGLSERMTVKSTFAFC,0.39 ± 0.56
6,VDSHVYRNT,-0.203 ± 1.1
7,VDVSNLKCLQE,0.335 ± 0.42
8,VDYFFMGAGFEL,4.53 ± 0.077
9,VECAYSVTFSKMNRNTDFRV,0.265 ± 0.35
10,VEGRRFDINAWRDWTKGVR,-0.238 ± 0.3
11,VEIYGCTSPDQWSVANSCTA,0.047 ± 0.36
12,VESTCTNMRCYLGWFIPPF,0.387 ± 0.2
13,VEVYFSFLNLIFSGMSVLVE,0.129 ± 0.28
14,VFASVRLSCMEGGTLVG,0.241 ± 0.33
15,VFCVRYLRANISCEGHDGWY,2.28 ± 0.14
16,VFGIRFLI,-1.54 ± 2.7
17,VFGKITSWWFRTIDFWERRI,-0.428 ± 0.64
18,VFILALVELFGVQWLVVYNW,-0.42 ± 0.47
19,VFKCVNFS,inactive
20,VFKFKTM,1.24 ± 0.81
21,VFLIEQPMERCK,0.199 ± 0.22
22,VFLKCFRYTFNNHINFFCVG,5.96 ± 0.064

row,Substance,amyloid nucleation score
1,VFLKHAPRGI,-0.077 ± 1.7
2,VFLSCHQSLRVFVACYWHWY,0.672 ± 0.33
3,VFLVIVRYWCFFYHPVDTAN,inactive
4,VFMSIRMWAFDLLYVSCGLA,-0.808 ± 0.42
5,VFNARVSYSFNSMCWVRKKQ,-2.08 ± 2.7
6,VFNMTYRKIRVTE,inactive
7,VFNRFCYSSFCLTYRDYDSQ,8.198 ± 0.07
8,VFNTSRLFRSLYPK,0.573 ± 0.82
9,VFPDASSMRVRGGIDTAQEL,0.037 ± 0.46
10,VFPFPLGFDFKNHERKSVV,-1.24 ± 0.58
11,VFQLIVTTFLSCVGFHKVMW,-0.658 ± 0.6
12,VFTGLLLL,-0.034 ± 0.36
13,VFVSIMWQY,1.82 ± 0.51
14,VFVSKNWGTCRHGRDSCC,0.507 ± 0.26
15,VFVSWHKVCTNQRSLRQVHL,1.56 ± 0.48
16,VFWTYVGERKKSLVCRNLGA,-0.189 ± 0.71
17,VFYACSTPRPSQNASVDFRL,-0.035 ± 0.61
18,VGDCSSVFCVTSFDWVSFYV,2.89 ± 0.098
19,VGDKQFHTKYMVA,0.031 ± 1.1
20,VGDWFSLVENWVVWSFSLIC,-1.89 ± 2.1
21,VGDYFFGDDSIGGSRMHVSY,1.15 ± 0.65
22,VGESHCLNADLVSYQHN,-0.374 ± 0.6

row,Substance,amyloid nucleation score
1,VGIPGGWIQNITFSSMKDFF,4.9 ± 0.065
2,VGLMAVLRVGRKGLPLKNME,-0.082 ± 0.31
3,VGNRSFNIFGTMCKMLQWTE,-0.715 ± 1.1
4,VGNVRPVFDTALTTWRRCCF,0.223 ± 0.49
5,VGRLGKFRGFSIGNYECSI,0.726 ± 0.55
6,VGSGSDQQYALMSNLYSKLS,1.02 ± 0.7
7,VGSTKSDVTDFLDCMNGLEW,0.462 ± 0.63
8,VGVVCLKFLP,-0.064 ± 0.43
9,VHSCIYVSKTSLELARYQML,inactive
10,VHSWQVVRYFRFLVLYSWDR,0.539 ± 0.42
11,VIDAIQPRKYGFV,-0.462 ± 0.58
12,VIGDLSYRSYI,0.44 ± 0.4
13,VIGSMVGLI,0.668 ± 0.31
14,VIHLSVSWLGMLSGWANLFV,-0.529 ± 0.94
15,VIIAEVDVVA,-0.186 ± 0.57
16,VIIKTRLELYKWRTMISSND,-0.454 ± 0.63
17,VIILNVVFNLLYEKAFFFR,0.278 ± 0.68
18,VILSARSFMTIHGHYCTYRV,0.474 ± 0.88
19,VILSCSLLFCFNRSWGLGNE,7.04 ± 0.067
20,VIMCNI,0.068 ± 0.93
